Results published in publication doi:10.1101/2020.09.10.291138.

Molecular target: human IgM-Fc (heavy chain constant domains Cμ2, Cμ3, Cμ4 and the tailpiece) (human)
Test: cryo-EM structure

“human IgM-Fc (heavy chain constant domains Cμ2, Cμ3, Cμ4 and the tailpiece) (domain or fragment)” was tested, and the stoichiometry N was 5.
